The values below come from patent US20210040189A1 (Amgen, published 2021).

Experiment [1] has as its target T1, human DKK1 (human, UniProt O94907 32-266).
T1 construct: also called huDKK1; hDKK1
T1 sequence: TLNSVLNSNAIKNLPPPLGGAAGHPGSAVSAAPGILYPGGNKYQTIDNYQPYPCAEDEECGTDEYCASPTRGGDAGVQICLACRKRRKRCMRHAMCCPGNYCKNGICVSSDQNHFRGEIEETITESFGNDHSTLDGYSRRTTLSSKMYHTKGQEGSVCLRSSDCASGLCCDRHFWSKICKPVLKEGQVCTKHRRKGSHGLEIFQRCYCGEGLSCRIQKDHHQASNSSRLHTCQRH
As to the kind of experiment: BiaCore 2000. (SPR reads the build-up and loss of mass on a sensor chip optically.)
From the text: BiaCore allowed us to determine the kd of the selected antibodies.

The target of experiment [2] is T1, human DKK1. As to the kind of experiment: cell-based or functional assay.
The target in experiment [3] is T1, human DKK1. Nature of the experiment: KinExA 3000 equilibrium binding in solution. As to the method: (§1) Accordingly, the affinity of several of these antibodies to DKK1 was further assessed by an equilibrium binding analysis using the more sensitive KinExAtm 3000. For these measurements, Reacti-Gel 6× beads (Pierce, Rockford, Ill.) were pre-coated with human, cynomologous or mouse DKK1 and blocked with BSA. One hundred pM, 300 pM, or 1000 pM of the antibody was mixed with various concentrations of human, mouse or cyno DKK1, ranging in concentration from 1 pM to 50 nM, and equilibrated at room temperature for 8 hours. The mixtures were then passed over the DKK1-coated beads. The amount of bead-bound anti-DKK1 antibody was quantified using goat anti-human-IgG antibody labeled with a fluorescent tag (Cy5; Jackson Immuno Research, West Grove, Pa.). The amount of fluorescent signal measured was proportional to the concentration of free anti-DKK1 antibody in each reaction mixture at equilibrium. The dissociation equilibrium constant (Kd) was obtained from nonlinear regression of the competition curves using a dual-curve one-site homogeneous binding model using the KinExA software.
For orientation: A kinetic exclusion assay measures how much of one partner remains free in solution.

For experiment [4], the target named is T2, mouse DKK1 (mouse, UniProt O54908 32-272).
T2 construct: also called murine DKK1
T2 sequence: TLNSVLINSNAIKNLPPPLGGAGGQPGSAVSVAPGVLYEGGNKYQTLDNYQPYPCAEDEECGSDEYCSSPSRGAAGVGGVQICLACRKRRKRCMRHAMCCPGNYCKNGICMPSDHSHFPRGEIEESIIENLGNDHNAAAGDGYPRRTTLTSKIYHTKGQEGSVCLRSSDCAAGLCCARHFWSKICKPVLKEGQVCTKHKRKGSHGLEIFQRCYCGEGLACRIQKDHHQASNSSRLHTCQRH
Nature of the experiment: KinExA 3000 equilibrium binding in solution. On the procedure: as §1

By koff is commonly meant the rate constant with which the complex falls apart. Read a low koff as a long-lived complex. Broadly, the Kd is the equilibrium constant for the complex coming apart. Read a low Kd as a tighter complex.

B1: 6.147.4 (antibody, V domains shown)
VH: QVQLVESGGGVVQPGRSLRLSCAASGFTFSRYDMHWVRQAPGKGLEWVAIIFYDGSNKYYADPVKGRFTISRDNSKNTLYLQMNSLRAEDTAVYYCATLAAAFDYWGQGTLVTVSS
VL: YVLTQPPSVSVAPGQTARITCGGNNIGSKSVHWYQQKPGQAPVLVVYDDSDRPSEIPERFSGSNSGNTATLTISRVEAGDEADYYCQVWDSSSDHVVFGGGTRLTVL
notes: Fully human hybridoma IgG, lambda (Vl)
Regarding B1, in experiment [1], the koff came to 0.000251 s⁻¹. Further, in experiment [2], the “ST2 EC50” value turned out to be 2.57 nM and the “TCF EC50” value was found to be 3.95 nM. The molecule also came in with a dissociation constant (Kd) in experiment [3] of 0.125 nM.

B2: 2.20.1 (antibody, V domains shown)
VH: QVQLVESGGGVVQPGRSLRLSCAASGFTFSSYGMHWVRQAPGKGLEWVAVISYDGSDKYYADSVKGRFTISRDNSKNTLYLQMNSLRAEDTAVYYCARDQWGGSPAGPWGQGTLVTVSS
VL: DIVMTQTPLSLSVIPGQPASISCKSSQSLLHSDGKTYLYWYLQRPGQPPQLLIYEVSNRFSGVPHRLSGSGSGTDFTLKISRVEAEDVGVYYCMQSIQVPWTFGQGTKVEIK
notes: Fully human hybridoma IgG, kappa (Vk)
Regarding B2, the dissociation rate constant (koff) in experiment [1] turned out to be 0.00024 s⁻¹. Moreover, in experiment [2], the “ST2 EC50” value amounted to 34.7 nM and the “TCF EC50” value is 10.7 nM.

B3: 2.41.1 (antibody, V domains shown)
VH: QVQLVESGGGVVQPGRSLRLSCAASGFTFSSYGMHWVRQAPGKGLEWVAVISYDGSDKYYADSVKGRFTISRDNSKNTLYLQMNSLRAEDTAVYYCARAGYSLYYYYGMDVWGQGTTVTVSS
VL: DIVMTQTPLSLSVTPGQPASISCKSSQSLLHSDGKTYLYWYLQKPGQPPQLLIYEVSNRFSGVPDRFSGSGSGTDFTLKISRVEAEDVGVYYCMQSKQLPFTFGPGTKVDIK
notes: as for B2
B3 displayed a koff in experiment [1] of 0.0013 s⁻¹. In experiment [2], the “ST2 EC50” value came out at 89.1 nM and the “TCF EC50” value is 32.1 nM.

B4: 6.139.5 (antibody, V domains shown)
VH: QVQLVESGGGVVQPGRSLRLSCAASGFTFSSYGMHWVRQAPGKGLEWVAVISYDGGDQYYADSVKGRFTISRDNSKNTLYLQMNSLRTEDTAEYYCARELRVLWGQGTLVTVSS
VL: DIVMTQTPLSLSVTPRQPASISCKSSQSLLHSDGKTYLYWYLQKPGQPPQFLIYEVSNRFSGVPDRFSGSGSGTDFTLKISRVEAEDVGVYYCMQSIQLPWTFGQGTKVEIK
notes: as for B2
In experiment [1], B4 showed a koff of 0.000209 s⁻¹. In addition, in experiment [2], the “ST2 EC50” value was 3.93 nM and the “TCF EC50” value is 9.78 nM. The affinity in experiment [3], expressed as Kd, was 0.11 nM.

B5: 5.17.1 (antibody, V domains shown)
VH: QVQLQESGPGLVKPSETLSLTCTVSGGSISSYYWSWIRQPPGKGLEWIGYIYYSGNTNYNPSLKSRVTISVDTSKNQFSLKLRSVTAADTAVYYCARYNWNNDLFDYWGQGTLVTVSS
VL: DIQMTQSPSSLSASVGDRVTITCQASQDINNYLNWYQQKPGKAPNLLIYDASNLETGVPSRFSGSGSGTDFTFTISSLQPADIATYYCQQYDDFPLTFGGGTKVEIK
notes: as for B2
As for B5, the koff in experiment [1] amounted to 0.000303 s⁻¹. In experiment [2], the “ST2 EC50” value was determined as 8.24 nM and the “TCF EC50” value amounted to 3.48 nM.

B6: 5.31.1 (antibody, V domains shown)
VH: QVQLVESGGGVVQPGRSLRLSCAASGFTFSSYGMHWVRQAPGKGLEWVAVIWYDGRNKYYADSVKGRFTISRDNSKNTLYLQMNSLRAEDTAVYYCARGGGAVADYNYYYGMDVWGQGTTVTVSS
VL: DIQVTQSPSSLSASVGDRVTITCQASQDISNYLNWYQQKPGKAPKFLIYDASNLEAGVPSRFSGSGSGTDFTFTISSLQPEDIATYYCQQYDNLPLTFGGGTKVEIK
notes: as for B2
On to B6, for which, in experiment [1], the koff was 0.000105 s⁻¹. Besides, in experiment [2], the “ST2 EC50” value amounted to 10.4 nM and the “TCF EC50” value turned out to be 5.29 nM.

B7: 5.40.1 (antibody, V domains shown)
VH: QVLLQESGPGLVKPSETLSLTCTVSGGSISSYYWSWIRQTPGKGLEWIGYVYYSGSTSYNPSLKSRVTISMYTSKTEFSLKLSSVTAADTAVYYCARYNWNNDLFDYWGQGTLVTVSS
VL: DIRLTQSPSSLSASVGDRVTITCQASQDISNYLNWYQQEPGKAPKLLIYDASNLETGVPSRFSGSGSGTDFTFTISSLQPEDIATYYCQQYDNFPLTFGGGTKVEIK
notes: as for B2
In the case of B7, the koff in experiment [1] was determined as 0.000281 s⁻¹. Moreover, in experiment [2], the “ST2 EC50” value came to 7.24 nM and the “TCF EC50” value was 3.75 nM.

B8: 5.65.1 (antibody, V domains shown)
VH: EVQLLESGGGLVQPGGSLRLSCAASGFTSGNYAMSWVRQAPGKGLEWVSAISGGGGTTYYADSVEGRFTISRDNSKNTLYLQLNSLRAEDTAVYYCAKEFGELEPRFDYWGQGTLVTVSS
VL: SYVLTQPPSVSVAPGQTARITCGGNNIGSKSVHWYQQKPGQAPVLVVYDDSDRPSGIPERFSGSNSGNTATLTISRVEAGDEADYYCQVLDSSSDHVIFGGGTKLTVL
notes: as for B1
Turning to B8, in experiment [1], the koff amounted to 0.000525 s⁻¹. Also, in experiment [2], the “ST2 EC50” value is 5.87 nM and the “TCF EC50” value came out at 4.21 nM.

B9: 5.76.1 (antibody, V domains shown)
VH: QLQLQESGPGLVKPSETLSLTCTVSGGSISSSNYYWGWIRQPPGKGLEWIGTIYYSGSTYYTPSLKSRVTISVDTSKNQFSLKLSSVTAADTAVYYCARERAIAVAAIVFFDYWGQGTLVTVSS
VL: SYVLTQPPSVSVAPGQTARITCGGNNIGSESVHWYQQKPGQAPVLVVYDDSDRPSGIPERFSGSNSGNTATLTISRVEAGDEADYYCQVWDSSNDHVVFGGGTKLTVL
notes: as for B1
On to B9, for which the koff in experiment [1] came out at 0.000241 s⁻¹. Further, in experiment [2], the “ST2 EC50” value came out at 4.09 nM and the “TCF EC50” value worked out at 2.55 nM.

B10: 5.78.1 (antibody, V domains shown)
VH: QVQLVESGGGVVQPGRSLRLSCAASGFTFSSYGMHWVRQAPGKGLEWVAVILYDGSDNYYADSVKGRFTISRDNSKNTLYLQMNSLRAEDTAVYYCAREGIAVAGDYYYYGMDVWGQGTTVTVSS
VL: EIVLTQSPGTLSVSPGERATLSCRASQSVSSSYLAWYQQKPGQAPRLLIYGASGRATGIPDRFSGSGSGTDFILTISRLEPEDFAVYYCQQYGSSFTFGGGTKVEIK
notes: as for B2
B10 showed a dissociation rate constant (koff) in experiment [1] of 0.000191 s⁻¹. In experiment [2], the “ST2 EC50” value was 5.7 nM and the “TCF EC50” value amounted to 3.75 nM.

B11: 2.47.1 (antibody, V domains shown)
VH: QVQLQESGPGLVKPSQTLSLTCTVSGGSISSGGYYWSWIRQHPGKGLEWIGDIYYSGSTYYNPSLKSRVTISVDTSKNQFSLKLSSVTAADTAVYYCARDRAYGDYGGDYYYGMDVWGQGTTVTVSS
VL: DIVMTQTPLSLPVTPGEPASISCRSSQSLLDSDDGDTYLDWYLQKPGQSPQLLIYTLSYRASGVPDRFSGSGSGTDFTLKISRVEAEDVGVYYCMQRIEFPFTFGPGTKVDIK
notes: as for B2
B11 had an off-rate constant (koff) in experiment [1] of 0.00092 s⁻¹. Moreover, the “TCF EC50” value in experiment [2] stood at 60.7 nM.

B12: 5.85.1 (antibody, V domains shown)
VH: EVQLVQSGAEVKKPGESLKISCKVSGYSFTTYWIGWVRQMPGKGLDWMGIIYPGDSDTRYSPSFQGQVTISADKSISTAYLQWSSLKASDTAMYYCARQGIAFDYWGQGTLVTVSS
VL: QSVLTQPPSVSGAPGQRVTISCTGSSSNIGAGYDVHWYQQLPRTAPKLLIYGNSNRPSGVPDRFSDSKSGTSASLAITGLQAEDEADYYCQSYDSSLSVIFGGGTKLTVL
With B12, in experiment [2], the “ST2 EC50” value is 10.6 nM and the “TCF EC50” value is 4.53 nM.

B13: 5.23.1 (antibody, V domains shown)
VH: QVQLVESGGGVVQPGRSLRLSCAASGFTFSSYGMHWVRQAPGKGLEWVAVIWCDGSNKYYADSVKGRFTISRDSSKNTLYLQMNSLRAEDTAVYYCARGGYGSGSYEDYYYGMDVWGQGTTVTVSS
VL: not shown
Regarding B13, in experiment [1], the koff stood at 0.000181 s⁻¹. For the same molecule, in experiment [2], the “ST2 EC50” value is 4.29 nM and the “TCF EC50” value came to 1.01 nM.

B14: 2.4.1 (antibody, V domains shown)
VH: QVQLMQSGAEVKKPGASVKVSCKASGYTFTSYGISWVRQAPGQGLEWMGWISADNGHTNYAQKLQGRVTMTTDTSTSTAYMELRSLRSDDTAVYYCARDGELLNYYYYYGMDVWGQGTTVTVSS
VL: DIQMTQSPSSLSASVGDRVTITCRASQGIRDDLGWFQQKPGKAPKRLIYAASSLQSGVPSRFSGSGSGTEFTLTISSLQPEDFATYYCLQHNSYPCSFGQGTKLEFK
notes: as for B2
In turn, B14 showed a koff in experiment [1] of 0.0006 s⁻¹. Besides, in experiment [2], the “ST2 EC50” value turned out to be 17.2 nM and the “TCF EC50” value amounted to 38.6 nM.

B15: 5.77.1 (antibody, V domains shown)
VH: QVQLVQSGAEVKKPGASVKVSCKASGYTFTSYDINWVRQATGQGLEWMGWMNLNSDNTGYAQKFQGRVTMTRNTSISTAYMELSSLRSEDTAVYYCASIAARRDYNYYGMDVWGQGTKVTVSS
VL: QSPSVSVAPGQTARITCGGNNIGSKSVHWYQQKPGQAPVLVVYDDSDRPSGIPERFSGSNSGNTATLTISRVEAGDEADYYCQVWDSSSDHWVFGGGTKLTVL
notes: as for B1
B15 showed a koff in experiment [1] of less than 2e-05 s⁻¹. Also, in experiment [2], the “ST2 EC50” value was determined as 6.23 nM and the “TCF EC50” value was 2.14 nM. In addition, binding in experiment [3] was put at a Kd of 0.008 nM. The same molecule gave a Kd in experiment [4] of 0.14 nM.
